One block for each binder: values may come before it.
Target: HLA-DR (human)
Experiment: cell-based or functional assay

B1: huLym-1-B-DAP CAR (Experiment 3, with 261 tag) (receptor)
chain: EVQLVESGGGLVQPGRSLRLTCTASGFSLTSYGVHWVRQPPGKGLEWLAVIWSDGSTTYNSALKSRLTISKDNSKSQVYLQMNSLRAEDTAVYYCARHYGSTLAFASWGQGTLVTVSSGGGGSGGGGSGGGGSDIQMTQSPSSLSASVGDRVTITCRASVNIYSYLAWYQQKPGKAPNLLIYNAKILAEGVPSRFSGSGSGTDFTLTISSLQPEDFASYYCQHHYGTFTFGQGTKVEIKAVPPQQWALSTTTPAPRPPTPAPTIASQPLSLRPEACRPAAGGAVHTRGLDFACDIYIWAPLAGTCGVLLLSLVITLYCLCARPRRSPAQDGKVYINMPGRGYFLGRLVPRGRGAAEAATRKQRITETESPYQELQGQRSDVYSDLNTQRPYYK
- killing of Raji cells at 2:1 effector to target ratio, overnight co-culture: ~80%

- fold expansion of CAR T cells from days 7-14: < 4 fold
B2: huLym-1-B-BB3z CAR (receptor)
chain: EVQLVESGGGLVQPGRSLRLTCTASGFSLTSYGVHWVRQPPGKGLEWLAVIWSDGSTTYNSALKSRLTISKDNSKSQVYLQMNSLRAEDTAVYYCARHYGSTLAFASWGQGTLVTVSSGGGGSGGGGSGGGGSDIQMTQSPSSLSASVGDRVTITCRASVNIYSYLAWYQQKPGKAPNLLIYNAKILAEGVPSRFSGSGSGTDFTLTISSLQPEDFASYYCQHHYGTFTFGQGTKVEIKAVPPQQWALSTTTPAPRPPTPAPTIASQPLSLRPEACRPAAGGAVHTRGLDFACDIYIWAPLAGTCGVLLLSLVITLYCKRGRKKLLYIFKQPFMRPVQTTQEEDGCSCRFPEEEEGGCELRVKFSRSADAPAYKQGQNQLYNELNLGRREEYDVLDKRRGRDPEMGGKPRRKNPQEGLYNELQKDKMAEAYSEIGMKGERRRGKGHDGLYQGLSTATKDTYDALHMQALPP

Source: US20220056139A1 (UNIVERSITY OF SOUTHERN CALIFORNIA, published 2022)
